From patent US20040166099A1 (TOLERRX, published 2004) come the findings set out here.

This assay addresses protein kinase C theta (human, UniProt Q04759 1-706). The assay can be described thus: cell-based or functional assay.

protein kinase C theta, sequence (Q04759 whole entry): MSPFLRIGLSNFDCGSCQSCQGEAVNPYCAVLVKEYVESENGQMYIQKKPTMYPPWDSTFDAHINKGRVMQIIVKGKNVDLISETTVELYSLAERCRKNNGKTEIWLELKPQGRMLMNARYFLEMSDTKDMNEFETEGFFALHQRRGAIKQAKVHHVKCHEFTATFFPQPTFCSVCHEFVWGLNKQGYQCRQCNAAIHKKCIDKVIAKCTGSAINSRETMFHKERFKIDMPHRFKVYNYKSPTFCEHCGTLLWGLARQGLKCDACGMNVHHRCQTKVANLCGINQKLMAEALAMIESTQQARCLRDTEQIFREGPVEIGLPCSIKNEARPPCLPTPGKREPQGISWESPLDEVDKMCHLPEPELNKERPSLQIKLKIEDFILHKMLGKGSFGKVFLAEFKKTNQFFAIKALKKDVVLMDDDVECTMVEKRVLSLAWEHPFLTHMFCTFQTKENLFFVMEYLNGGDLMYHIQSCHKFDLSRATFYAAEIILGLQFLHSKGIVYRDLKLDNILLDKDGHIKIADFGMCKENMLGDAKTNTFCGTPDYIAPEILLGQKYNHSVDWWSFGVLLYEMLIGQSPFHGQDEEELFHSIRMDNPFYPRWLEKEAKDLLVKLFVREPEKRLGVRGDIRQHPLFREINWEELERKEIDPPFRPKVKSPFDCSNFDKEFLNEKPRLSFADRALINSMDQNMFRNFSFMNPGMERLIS

As to RQIKIWFQNRRMKWKKMDQNMFRNFSFNMP [antennapedia-PKC theta peptide], the “proliferation (3H-thymidine incorporation) of Th1 and Th2 cells stimulated with CD3 and CD28, relative to no inhibitor” value is 16 % of control levels.
